Results from PMC7491322, “Molecular basis for the distinct cellular functions of the Lsm1–7 and Lsm2–8 complexes”.

Key:
Lsm1Δ56C-7 [1] = molecular target: T1, Lsm1Δ56C-7 (Schizosaccharomyces pombe, UniProt P87173;O94408;Q9Y7M4;O14352;O42978;Q9UUI1;O74499 …); assay: X-ray crystallography; 1.8 Å; FP: 100 mM NaCl, 20 mM Tris pH 8.2 (final ~8), 10 mM MgCl2, 1 mM TCEP, 1 mM Na azide, 0.1 mg/mL each tRNA, BSA and heparin; temperature not stated; 1 nM RNA final; Hill fixed at 1; details: protein: recombinant; tags: as P2; copies: 1;1;1;1;1;1;1; single-stranded
Lsm1-7 [2] = molecular target: T2, Lsm1-7 (Schizosaccharomyces pombe, UniProt P87173;O94408;Q9Y7M4;O14352;O42978;Q9UUI1;O74499 …); assay: fluorescence polarization; FP: 100 mM NaCl, 20 mM Tris pH 8.2 (final ~8), 10 mM MgCl2, 1 mM TCEP, 1 mM Na azide, 0.1 mg/mL each tRNA, BSA and heparin; temperature not stated; 1 nM RNA final; Hill fixed at 1; details: protein: recombinant, tags: Lsm4 C-term strep-II (as for Lsm2-8), Lsm7 untagged, GST (Lsm3) and MBP (Lsm6) with TEV sites, TEV treated, copies: 1;1;1;1;1;1;1, label: 5'-FAM
Lsm1Δ56C-7 [3] = molecular target: T1, Lsm1Δ56C-7; assay: as above; details: protein: recombinant, tags: as P2, copies: 1;1;1;1;1;1;1, label: 5'-FAM
Lsm1Δ56C-7 [4] = molecular target: T1, Lsm1Δ56C-7; assay: X-ray crystallography; 2.1 Å; FP: 100 mM NaCl, 20 mM Tris pH 8.2 (final ~8), 10 mM MgCl2, 1 mM TCEP, 1 mM Na azide, 0.1 mg/mL each tRNA, BSA and heparin; temperature not stated; 1 nM RNA final; Hill fixed at 1; details: protein: recombinant; tags: as P2; copies: 1;1;1;1;1;1;1; single-stranded
Lsm2-8 [5] = molecular target: T3, Lsm2-8 (Schizosaccharomyces pombe, UniProt O94408;Q9Y7M4;O14352;O42978;Q9UUI1;O74499;O74483 …); assay: X-ray crystallography; 1.9 Å; FP: 100 mM NaCl, 20 mM Tris pH 8.2 (final ~8), 10 mM MgCl2, 1 mM TCEP, 1 mM Na azide, 0.1 mg/mL each tRNA, BSA and heparin; temperature not stated; 1 nM RNA final; Hill fixed at 1; details: protein: recombinant; tags: Lsm4 C-term strep-II; Lsm7 C-term His6; GST (Lsm3) and MBP (Lsm6) with TEV sites, TEV treated; copies: 1;1;1;1;1;1;1; single-stranded
Lsm2-8 [6] = molecular target: T3, Lsm2-8; assay: fluorescence polarization; FP: 100 mM NaCl, 20 mM Tris pH 8.2 (final ~8), 10 mM MgCl2, 1 mM TCEP, 1 mM Na azide, 0.1 mg/mL each tRNA, BSA and heparin; temperature not stated; 1 nM RNA final; Hill fixed at 1; details: protein: recombinant; tags: Lsm4 C-term strep-II; Lsm7 C-term His6; GST (Lsm3) and MBP (Lsm6) with TEV sites, TEV treated; copies: 1;1;1;1;1;1;1; label: 5'-FAM; single-stranded
Lsm1-7 (Lsm5 N66A/N68A) = Lsm1-7 (Lsm5 N66A/N68A) (Schizosaccharomyces pombe, UniProt P87173;O94408;Q9Y7M4;O14352;O42978;Q9UUI1;O74499 …, N66A;N68A;Lsm5); assay: as above; details: protein: recombinant; tags: as P2; copies: 1;1;1;1;1;1;1; label: 5'-FAM; single-stranded
Lsm1-7 [7] = molecular target: T2, Lsm1-7; assay: as above; details: protein: recombinant; tags: Lsm4 C-term strep-II (as for Lsm2-8); Lsm7 untagged; GST (Lsm3) and MBP (Lsm6) with TEV sites, TEV treated; copies: 1;1;1;1;1;1;1; label: 5'-FAM; single-stranded
Lsm2-8 [8] = molecular target: T3, Lsm2-8; assay: X-ray crystallography; 2.3 Å; FP: 100 mM NaCl, 20 mM Tris pH 8.2 (final ~8), 10 mM MgCl2, 1 mM TCEP, 1 mM Na azide, 0.1 mg/mL each tRNA, BSA and heparin; temperature not stated; 1 nM RNA final; Hill fixed at 1; details: protein: recombinant; tags: Lsm4 C-term strep-II; Lsm7 C-term His6; GST (Lsm3) and MBP (Lsm6) with TEV sites, TEV treated; copies: 1;1;1;1;1;1;1; single-stranded
[9] = 5' hairpin, single-stranded 3' end

## UUUUUA (ssRNA)
Lsm1Δ56C-7 [1]
  binding result: binds

## UUUUUUUUUUUUUAA (ssRNA) [U13AA]
Lsm1-7 [2]; single-stranded
  binding result: binds

## GGCACUUCGGUGCCCCCCAUUUUA (structured_RNA) [5' stem-loop RNA with UUUUA site]
Lsm1Δ56C-7 [3]; [9]
  Kd: 32 nM
Lsm1-7 [2]; [9]
  Kd: 70 nM

## AUUUUG (ssRNA)
Lsm1Δ56C-7 [4]
  binding result: binds

## AAAAAAAAAAAAAAA (ssRNA) [A15]
Lsm1Δ56C-7 [3]; single-stranded
  binding result: no binding

## UUUUU (ssRNA) [UUUUU-3'-OH]
Lsm2-8 [5]
  binding result: binds

## ACCCAUUUUU (ssRNA, 3' phosphate) [U6 3' tail, 3' phosphate]
Lsm2-8 [6]
  Kd: 152 nM

## ACCCAUUUUU (ssRNA) [U6 3' tail, 3'-OH]
Lsm2-8 [6]
  Kd: 100 nM

## CCCCCUUUUUA (ssRNA)
Lsm1Δ56C-7 [3]; single-stranded
  Kd: 13 nM
Lsm1-7 [2]; single-stranded
  Kd: 29.7 nM

## ACCCAUUUUU (ssRNA, 2',3' cyclic phosphate) [U6 3' tail, 2',3' cyclic phosphate]
Lsm2-8 [6]
  Kd: 26 nM

## ACCCAUUUUU (ssRNA, 2',3' cyclic phosphate) [cyclic phosphate oligoU RNA (Lsm1-7 assays)]
Lsm1-7 (Lsm5 N66A/N68A)
  binding signal: ~7 fold weaker than adenosine-terminated RNA
Lsm1-7 [7]
  binding signal: ~14 fold weaker than N4

## UUUUUUUUUUUUUUA (ssRNA) [U14A]
Lsm1-7 [2]; single-stranded
  binding result: binds

## ACCCAUUUUUA (ssRNA) [3' monoadenylated oligoU RNA]
Lsm2-8 [6]
  binding result: binds

## UUUUUUUUUUUUUUU (ssRNA) [U15]
Lsm1-7 [2]; single-stranded
  binding result: binds

## UUUUUACCCCC (ssRNA)
Lsm1Δ56C-7 [3]; single-stranded
  Kd: 34 nM
Lsm1-7 [2]; single-stranded
  Kd: 189 nM

## UUUUU (ssRNA, 2',3' cyclic phosphate) [UUUUU>p]
Lsm2-8 [8]
  binding result: binds
